Results reported in patent US20230002486A1 (SPARX THERAPEUTICS, published 2023).

Columns and labels:
[1] = target: claudin 18.2 (CLDN 18.2), recombinant protein (human); assay: direct ELISA, coated recombinant CLDN 18.2
From the text: ELISA assay was employed to determine the binding properties of the bispecific antibodies to their antigens. […] The wells were then reacted with goat anti human IgG antibody conjugated with horseradish peroxidase (HRP).

[2] = target: claudin 18.2 (CLDN 18.2), recombinant protein (human); assay: direct ELISA, coated CLDN 18.2 (FIG. 28A)
[3] = target: claudin 18.2 (CLDN 18.2), recombinant protein (human); assay: direct ELISA, coated recombinant CLDN 18.2 (FIG. 7A)
[4] = target: T1, CLDN 18.2 expressed on stably transfected cells (HEK293T-CLDN 18.2, MiaPaCa-CLDN 18.2) (human); assay: cell-based or functional assay
T1 sequence (chain, as listed by the source limits assumed): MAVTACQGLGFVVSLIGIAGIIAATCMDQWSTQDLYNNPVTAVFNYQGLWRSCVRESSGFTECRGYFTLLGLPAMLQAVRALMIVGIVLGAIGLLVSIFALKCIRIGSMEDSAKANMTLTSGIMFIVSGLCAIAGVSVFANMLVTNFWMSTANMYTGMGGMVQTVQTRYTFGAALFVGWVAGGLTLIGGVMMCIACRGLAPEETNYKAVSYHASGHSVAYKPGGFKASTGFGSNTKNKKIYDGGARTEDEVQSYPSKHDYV

[5] = target: T2, CLDN 18.2 fused with GFP at its C-terminal, on MCF7 cells (MCF7-CLDN 18.2) (human); assay: cell-based or functional assay
T2 sequence (chain, as listed by the source): as the sequence (chain, as listed by the source limits assumed) above

[6] = target: T1, CLDN 18.2 expressed on stably …; assay: cell-based or functional assay; remark: listed apart in the source
[7] = target: T2, CLDN 18.2 fused with GFP at its …; assay: cell-based or functional assay; remark: listed apart in the source

Chain of claudin 18.2 (CLDN 18.2), recombinant protein (human) (chain, as listed by the source limits assumed): as above

B1: h5C9ob, monospecific parent anti-CLDN 18.2 monoclonal antibody (IgG) (antibody, V domains shown)
VH: EVQLVESGGGLVQPGGSLRLSCAVSGYTFSMNWVRQAPGKGLEWVAWINMYTGEPTYADDFKGRFTISRDDSKNTLYLQMNSLRAEDTAVYYCARLYNGNSLDYWGQGTLVTVSS
VL: DIQMTQSPSSLSASVGDRVTITCKSSQSLLNSGNQKSYLTWYQQKPGKAPKLLIYWASTLESGVPSRFSGSGSGTDYTLTISSLQPEDFATYYCQNAYFFPFTFGQGTKVEIKR
notes: Whole human IgG1 produced as described under 'Production of Recombinant Antibodies'
[1]
  Kd: 0.13 nM
[2]
  Kd: 0.0819 nM
[3]
  Kd: 0.133 nM
[4]
  ADCC reporter assay, EC50 (FIG. 18): 0.0561 nM
  CDC against Mia Paca-CLDN 18.2 cells, EC50 (FIG. 17B): 0.52 nM
[5]
  ADCC reporter assay, EC50 (FIG. 24A): 0.00443 nM
[6]
  ADCC Reporter in HEK293-CLDN18.2, EC50: 0.056 nM
  CDC in HEK293-CLDN 18.2, EC50: 0.43 nM
  CDC in MiaPaCa-CLDN 18.2, EC50: 0.52 nM
[7]
  ADCC Reporter in MCF7-CLDN 18.2, EC50: 0.006 nM
